Tested on: Escherichia coli TOP10
Experiment: shrunken log2 fold change of peptide-encoding DNA abundance (4.5 h post-induction vs induction); higher = less antimicrobial activity (less host growth inhibition)
Details: time post-induction: 4.5 h; library: site-saturation at positions 5, 18, 19, 20
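Further: peptides expressed intracellularly from a pBAD plasmid library in pooled LB shake-flask culture, induced with 0.3% L-arabinose, DNA abundance read by NGS, three biological replicates, DESeq2 with apeglm shrinkage.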

Row | Sequence | shrunken log2 fold change
1 | RRIRIRPPRLPRPRPRPKCTPRP | -0.233
2 | RRIRIRPPRLPRPRPRPKDQPRP | -0.196
3 | RRIRIRPPRLPRPRPRPKEKPRP | 0.00643
4 | RRIRIRPPRLPRPRPRPKFDPRP | -0.18
5 | RRIRIRPPRLPRPRPRPKGFPRP | 0.0347
6 | RRIRIRPPRLPRPRPRPKGKPRP | -0.162
7 | RRIRIRPPRLPRPRPRPKGNPRP | -0.459
8 | RRIRIRPPRLPRPRPRPKHKPRP | -0.508
9 | RRIRIRPPRLPRPRPRPKMAPRP | -0.179
10 | RRIRIRPPRLPRPRPRPKNRPRP | -0.26
11 | RRIRIRPPRLPRPRPRPKNVPRP | -0.139
12 | RRIRIRPPRLPRPRPRPKRNPRP | -0.0625
13 | RRIRIRPPRLPRPRPRPKSIPRP | -0.14
14 | RRIRIRPPRLPRPRPRPKSVPRP | -0.0925
15 | RRIRIRPPRLPRPRPRPKVPPRP | 0.167
16 | RRIRIRPPRLPRPRPRPKVYPRP | -0.394
17 | RRIRIRPPRLPRPRPRPKWDPRP | -0.13
18 | RRIRIRPPRLPRPRPRPKWLPRP | 0.0546
19 | RRIRIRPPRLPRPRPRPKYEPRP | -0.83
20 | RRIRIRPPRLPRPRPRPKYHPRP | -0.532
21 | RRIRIRPPRLPRPRPRPLAEPRP | -0.129
22 | RRIRIRPPRLPRPRPRPLCRPRP | -0.289
23 | RRIRIRPPRLPRPRPRPLDGPRP | 0.0631
24 | RRIRIRPPRLPRPRPRPLDPPRP | -0.0309
25 | RRIRIRPPRLPRPRPRPLEQPRP | -0.419

Row | Sequence | shrunken log2 fold change
26 | RRIRIRPPRLPRPRPRPLERPRP | 0.0105
27 | RRIRIRPPRLPRPRPRPLFPPRP | -0.42
28 | RRIRIRPPRLPRPRPRPLGKPRP | -0.248
29 | RRIRIRPPRLPRPRPRPLGRPRP | 0.39
30 | RRIRIRPPRLPRPRPRPLGVPRP | -0.0767
31 | RRIRIRPPRLPRPRPRPLGWPRP | 0.339
32 | RRIRIRPPRLPRPRPRPLHWPRP | -0.138
33 | RRIRIRPPRLPRPRPRPLIGPRP | -0.0888
34 | RRIRIRPPRLPRPRPRPLINPRP | -0.444
35 | RRIRIRPPRLPRPRPRPLLTPRP | -0.156
36 | RRIRIRPPRLPRPRPRPLNRPRP | -0.476
37 | RRIRIRPPRLPRPRPRPLNVPRP | -1.23
38 | RRIRIRPPRLPRPRPRPLNWPRP | -0.291
39 | RRIRIRPPRLPRPRPRPLQRPRP | -0.106
40 | RRIRIRPPRLPRPRPRPLRKPRP | 0.00781
41 | RRIRIRPPRLPRPRPRPLSFPRP | -0.687
42 | RRIRIRPPRLPRPRPRPLSNPRP | -0.893
43 | RRIRIRPPRLPRPRPRPLSYPRP | -0.528
44 | RRIRIRPPRLPRPRPRPLTSPRP | -0.188
45 | RRIRIRPPRLPRPRPRPLVEPRP | -0.0936
46 | RRIRIRPPRLPRPRPRPLVSPRP | -0.244
47 | RRIRIRPPRLPRPRPRPLWIPRP | -0.445
48 | RRIRIRPPRLPRPRPRPLWWPRP | 0.266
49 | RRIRIRPPRLPRPRPRPMCDPRP | -0.356
50 | RRIRIRPPRLPRPRPRPMDKPRP | -0.448

Row | Sequence | shrunken log2 fold change
51 | RRIRIRPPRLPRPRPRPMDQPRP | 0.0178
52 | RRIRIRPPRLPRPRPRPMDYPRP | -0.00141
53 | RRIRIRPPRLPRPRPRPMITPRP | -0.616
54 | RRIRIRPPRLPRPRPRPMNDPRP | -0.00303
55 | RRIRIRPPRLPRPRPRPMNQPRP | -0.169
56 | RRIRIRPPRLPRPRPRPMPAPRP | 0.0451
57 | RRIRIRPPRLPRPRPRPMPVPRP | -0.244
58 | RRIRIRPPRLPRPRPRPMQHPRP | -0.289
59 | RRIRIRPPRLPRPRPRPMQWPRP | -0.192
60 | RRIRIRPPRLPRPRPRPMRFPRP | -0.0444
61 | RRIRIRPPRLPRPRPRPMRNPRP | 0.167
62 | RRIRIRPPRLPRPRPRPMSMPRP | -0.281
63 | RRIRIRPPRLPRPRPRPMWKPRP | -0.0693
64 | RRIRIRPPRLPRPRPRPMWRPRP | 0.19
65 | RRIRIRPPRLPRPRPRPMYLPRP | -0.249
66 | RRIRIRPPRLPRPRPRPNAWPRP | 0.213
67 | RRIRIRPPRLPRPRPRPNCVPRP | -0.376
68 | RRIRIRPPRLPRPRPRPNDPPRP | -0.19
69 | RRIRIRPPRLPRPRPRPNDQPRP | -0.43
70 | RRIRIRPPRLPRPRPRPNFDPRP | 0.235
71 | RRIRIRPPRLPRPRPRPNFHPRP | -0.52
72 | RRIRIRPPRLPRPRPRPNFTPRP | -0.545
73 | RRIRIRPPRLPRPRPRPNGVPRP | -0.37
74 | RRIRIRPPRLPRPRPRPNHNPRP | -0.518
75 | RRIRIRPPRLPRPRPRPNITPRP | -0.726

Row | Sequence | shrunken log2 fold change
76 | RRIRIRPPRLPRPRPRPNLEPRP | -0.114
77 | RRIRIRPPRLPRPRPRPNMVPRP | -0.383
78 | RRIRIRPPRLPRPRPRPNPHPRP | -0.581
79 | RRIRIRPPRLPRPRPRPNQIPRP | -0.713
80 | RRIRIRPPRLPRPRPRPNTLPRP | -0.818
81 | RRIRIRPPRLPRPRPRPNVPPRP | 0.0631
82 | RRIRIRPPRLPRPRPRPNYAPRP | -0.381
83 | RRIRIRPPRLPRPRPRPNYRPRP | -0.00601
84 | RRIRIRPPRLPRPRPRPPAAPRP | 0.458
85 | RRIRIRPPRLPRPRPRPPADPRP | 0.271
86 | RRIRIRPPRLPRPRPRPPCRPRP | 0.0264
87 | RRIRIRPPRLPRPRPRPPDEPRP | -0.0174
88 | RRIRIRPPRLPRPRPRPPELPRP | -0.123
89 | RRIRIRPPRLPRPRPRPPFFPRP | 0.41
90 | RRIRIRPPRLPRPRPRPPGKPRP | 0.324
91 | RRIRIRPPRLPRPRPRPPGPPRP | 0.575
92 | RRIRIRPPRLPRPRPRPPGTPRP | 0.029
93 | RRIRIRPPRLPRPRPRPPHYPRP | -0.707
94 | RRIRIRPPRLPRPRPRPPIHPRP | -0.614
95 | RRIRIRPPRLPRPRPRPPLIPRP | -0.512
96 | RRIRIRPPRLPRPRPRPPLVPRP | 0.0482
97 | RRIRIRPPRLPRPRPRPPMDPRP | -0.372
98 | RRIRIRPPRLPRPRPRPPNIPRP | -0.0703
99 | RRIRIRPPRLPRPRPRPPPKPRP | 0.46
100 | RRIRIRPPRLPRPRPRPPQKPRP | 0.0534

Row | Sequence | shrunken log2 fold change
101 | RRIRIRPPRLPRPRPRPPQPPRP | 0.343
102 | RRIRIRPPRLPRPRPRPPRWPRP | 0.514
103 | RRIRIRPPRLPRPRPRPPTCPRP | -0.278
104 | RRIRIRPPRLPRPRPRPPTIPRP | -0.904
105 | RRIRIRPPRLPRPRPRPPVIPRP | -0.108
106 | RRIRIRPPRLPRPRPRPPWWPRP | 0.516
107 | RRIRIRPPRLPRPRPRPQAIPRP | 0.0305
108 | RRIRIRPPRLPRPRPRPQAPPRP | -0.331
109 | RRIRIRPPRLPRPRPRPQAVPRP | -0.0119
110 | RRIRIRPPRLPRPRPRPQDMPRP | -0.0502
111 | RRIRIRPPRLPRPRPRPQGHPRP | -0.0464
112 | RRIRIRPPRLPRPRPRPQHSPRP | -0.463
113 | RRIRIRPPRLPRPRPRPQIKPRP | -0.853
114 | RRIRIRPPRLPRPRPRPQKWPRP | -0.0915
115 | RRIRIRPPRLPRPRPRPQLAPRP | -0.0191
116 | RRIRIRPPRLPRPRPRPQMNPRP | -0.887
117 | RRIRIRPPRLPRPRPRPQMVPRP | -0.186
118 | RRIRIRPPRLPRPRPRPQPVPRP | -0.169
119 | RRIRIRPPRLPRPRPRPQRIPRP | -0.536
120 | RRIRIRPPRLPRPRPRPQSRPRP | -0.0532
121 | RRIRIRPPRLPRPRPRPQTTPRP | -0.38
122 | RRIRIRPPRLPRPRPRPQYFPRP | -0.128
123 | RRIRIRPPRLPRPRPRPQYVPRP | -0.0421
124 | RRIRIRPPRLPRPRPRPRAEPRP | -0.202
125 | RRIRIRPPRLPRPRPRPRCFPRP | -0.141

Row | Sequence | shrunken log2 fold change
126 | RRIRIRPPRLPRPRPRPRDTPRP | -0.534
127 | RRIRIRPPRLPRPRPRPRDWPRP | 0.429
128 | RRIRIRPPRLPRPRPRPREAPRP | 0.0165
129 | RRIRIRPPRLPRPRPRPREEPRP | 0.0171
130 | RRIRIRPPRLPRPRPRPRFAPRP | 0.129
131 | RRIRIRPPRLPRPRPRPRFWPRP | 0.345
132 | RRIRIRPPRLPRPRPRPRGFPRP | 0.199
133 | RRIRIRPPRLPRPRPRPRGMPRP | 0.0423
134 | RRIRIRPPRLPRPRPRPRIRPRP | -0.204
135 | RRIRIRPPRLPRPRPRPRIWPRP | 0.063
136 | RRIRIRPPRLPRPRPRPRKYPRP | -0.561
137 | RRIRIRPPRLPRPRPRPRMVPRP | 0.0922
138 | RRIRIRPPRLPRPRPRPRNCPRP | -0.271
139 | RRIRIRPPRLPRPRPRPRNYPRP | 0.0483
140 | RRIRIRPPRLPRPRPRPRPAPRP | 0.286
141 | RRIRIRPPRLPRPRPRPRQLPRP | -0.27
142 | RRIRIRPPRLPRPRPRPRSNPRP | -0.0529
143 | RRIRIRPPRLPRPRPRPRSYPRP | -0.381
144 | RRIRIRPPRLPRPRPRPRTNPRP | -0.159
145 | RRIRIRPPRLPRPRPRPRWMPRP | 0.341
146 | RRIRIRPPRLPRPRPRPRYYPRP | -0.372
147 | RRIRIRPPRLPRPRPRPSAHPRP | -0.202
148 | RRIRIRPPRLPRPRPRPSCVPRP | -0.544
149 | RRIRIRPPRLPRPRPRPSDCPRP | -0.497
150 | RRIRIRPPRLPRPRPRPSDKPRP | -0.79
